Experimental data taken from article PMC8688910.

Molecular target: IpaB (invasion plasmid antigen B), C-terminal his6-tag, produced in CFPS (S. flexneri 2a)
Assay: SEC-MALS; Superdex200 10/30 Increase, 50 mM Tris pH 8, 150 mM NaCl, 0.1% (v/v) LDAO, 0.5 mL/min, column 25 °C, about 50-100 μg injected

Question: With “IpaB (invasion plasmid antigen B), C-terminal his6-tag, produced in CFPS (natural protein)” as the substance, how does the stoichiometry N read?
Answer: The stoichiometry N was 2.
